Patent US20250288612A1 (TOPMUNNITY THERAPEUTICS TAIWAN, published 2025)

Molecular target: T1, recombinant PD-L1 (UniProt Q9NZQ7 19-238, limits assumed)
T1 construct: also called Programmed Death-Ligand 1
Test: SPR, Biacore T200, multi-cycle kinetics, hTT-01 captured on Protein A chip, PD-L1 as analyte, 25 C
Description: The chip contains MabSelect SuRe ligand on the surface, allowing orientation-specific binding of the Fc region of an antibody.
The assay was performed by using the Kinetic/Affinity wizard. The Flow path was 2-1, as the ligand was injected and captured in Flow cell 2 and Flow cell 1 acted as a reference. A series of concentrations of PD-L1 were injected over the reference and the ligand surface consecutively as the association phase with short dissociation phases in between by injection running buffer. Then regeneration solution was injected as the regeneration phase. All the procedures were conducted at 25° C.

T1 sequence (Q9NZQ7 19-238 limits assumed): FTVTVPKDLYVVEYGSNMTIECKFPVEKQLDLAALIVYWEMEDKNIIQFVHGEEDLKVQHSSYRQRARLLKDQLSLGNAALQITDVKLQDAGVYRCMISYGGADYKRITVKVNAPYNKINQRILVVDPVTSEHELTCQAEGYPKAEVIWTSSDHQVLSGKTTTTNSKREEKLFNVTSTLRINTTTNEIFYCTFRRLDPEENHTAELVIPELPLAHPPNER

B1: humanized anti-PD-L1 monoclonal antibody hTT-01 (antibody, V domains shown)
VH: EVQLVESGGGLVKPGGSLRLSCAASGFSLSNYVMSWVRQAPGKGLEWVATISSGGRYIYYTDSVKGRFTISRDNAKNSLYLQMNSLRAEDTAVYYCARDGSTLYYFDYWGQGTTVTVSS
VL: QTVLTQSPATLSLSPGERATLSCSASSSVDYMYWYQQKPGQAPRLLIYDTSNLATGIPARFSGSGSGTDFTLTISSLEPEDFATYYCQQWSSSPPITFGQGTKVEIK
notes: It was captured through its Fc on a Protein A chip, and an anti-human IgG secondary antibody was used in FACS; also called TT-01 humanized monoclonal antibody
With B1 the Kd was 2.56 nM, the “half-life (t1/2) of the interaction” value was 1.31 h and the koff was 0.000147 s⁻¹. It also gave a kon of 57700 M⁻¹ s⁻¹.
